These results are taken from US20200057047A1 (NATIONAL HEALTH RESEARCH INSTITUTES, published 2020).

Assay [1] has as its target T1, HA-tagged AhR (Homo sapiens (Human), UniProt P35869 1-848, limits assumed).
T1 construct: also called HA-AhR; purified AhR; not shown: HA tag
T1 sequence: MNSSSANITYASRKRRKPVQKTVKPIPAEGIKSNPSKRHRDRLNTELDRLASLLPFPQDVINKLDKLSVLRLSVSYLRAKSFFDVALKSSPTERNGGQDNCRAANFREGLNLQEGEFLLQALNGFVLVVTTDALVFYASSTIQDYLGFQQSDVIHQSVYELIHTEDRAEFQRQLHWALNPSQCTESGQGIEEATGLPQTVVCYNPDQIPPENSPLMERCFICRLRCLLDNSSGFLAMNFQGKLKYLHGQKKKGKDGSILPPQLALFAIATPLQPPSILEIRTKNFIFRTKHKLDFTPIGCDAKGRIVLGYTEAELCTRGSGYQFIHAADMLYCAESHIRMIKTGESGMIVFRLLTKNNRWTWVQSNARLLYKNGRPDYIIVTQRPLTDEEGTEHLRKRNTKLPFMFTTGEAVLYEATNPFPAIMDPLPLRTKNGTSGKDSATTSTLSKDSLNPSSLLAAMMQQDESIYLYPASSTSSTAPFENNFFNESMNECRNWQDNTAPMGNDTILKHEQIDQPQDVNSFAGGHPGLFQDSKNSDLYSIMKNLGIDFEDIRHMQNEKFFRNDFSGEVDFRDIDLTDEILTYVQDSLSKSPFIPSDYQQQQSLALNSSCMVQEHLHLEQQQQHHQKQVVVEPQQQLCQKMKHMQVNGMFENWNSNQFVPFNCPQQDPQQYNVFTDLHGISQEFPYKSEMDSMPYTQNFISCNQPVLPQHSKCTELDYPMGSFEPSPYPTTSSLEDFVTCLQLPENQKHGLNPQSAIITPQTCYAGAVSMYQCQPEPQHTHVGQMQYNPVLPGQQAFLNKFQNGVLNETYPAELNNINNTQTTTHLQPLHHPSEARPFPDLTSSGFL
Nature of the assay: co-IP, HEK293T cells co-transfected with IKKβ-CFP (FIG. 5I).

The target in assay [2] is T2, Myc-tagged IQGAP1 (wild type) (Homo sapiens (Human), UniProt P46940 1-1657, phosphoserine at 480 where phosphorylated by GLK, as the filing reports).
T2 construct: the same molecule is used here; also called Myc-IQGAP1; IQGAP1 WT; not shown: Myc tag
T2 sequence (P46940 whole entry): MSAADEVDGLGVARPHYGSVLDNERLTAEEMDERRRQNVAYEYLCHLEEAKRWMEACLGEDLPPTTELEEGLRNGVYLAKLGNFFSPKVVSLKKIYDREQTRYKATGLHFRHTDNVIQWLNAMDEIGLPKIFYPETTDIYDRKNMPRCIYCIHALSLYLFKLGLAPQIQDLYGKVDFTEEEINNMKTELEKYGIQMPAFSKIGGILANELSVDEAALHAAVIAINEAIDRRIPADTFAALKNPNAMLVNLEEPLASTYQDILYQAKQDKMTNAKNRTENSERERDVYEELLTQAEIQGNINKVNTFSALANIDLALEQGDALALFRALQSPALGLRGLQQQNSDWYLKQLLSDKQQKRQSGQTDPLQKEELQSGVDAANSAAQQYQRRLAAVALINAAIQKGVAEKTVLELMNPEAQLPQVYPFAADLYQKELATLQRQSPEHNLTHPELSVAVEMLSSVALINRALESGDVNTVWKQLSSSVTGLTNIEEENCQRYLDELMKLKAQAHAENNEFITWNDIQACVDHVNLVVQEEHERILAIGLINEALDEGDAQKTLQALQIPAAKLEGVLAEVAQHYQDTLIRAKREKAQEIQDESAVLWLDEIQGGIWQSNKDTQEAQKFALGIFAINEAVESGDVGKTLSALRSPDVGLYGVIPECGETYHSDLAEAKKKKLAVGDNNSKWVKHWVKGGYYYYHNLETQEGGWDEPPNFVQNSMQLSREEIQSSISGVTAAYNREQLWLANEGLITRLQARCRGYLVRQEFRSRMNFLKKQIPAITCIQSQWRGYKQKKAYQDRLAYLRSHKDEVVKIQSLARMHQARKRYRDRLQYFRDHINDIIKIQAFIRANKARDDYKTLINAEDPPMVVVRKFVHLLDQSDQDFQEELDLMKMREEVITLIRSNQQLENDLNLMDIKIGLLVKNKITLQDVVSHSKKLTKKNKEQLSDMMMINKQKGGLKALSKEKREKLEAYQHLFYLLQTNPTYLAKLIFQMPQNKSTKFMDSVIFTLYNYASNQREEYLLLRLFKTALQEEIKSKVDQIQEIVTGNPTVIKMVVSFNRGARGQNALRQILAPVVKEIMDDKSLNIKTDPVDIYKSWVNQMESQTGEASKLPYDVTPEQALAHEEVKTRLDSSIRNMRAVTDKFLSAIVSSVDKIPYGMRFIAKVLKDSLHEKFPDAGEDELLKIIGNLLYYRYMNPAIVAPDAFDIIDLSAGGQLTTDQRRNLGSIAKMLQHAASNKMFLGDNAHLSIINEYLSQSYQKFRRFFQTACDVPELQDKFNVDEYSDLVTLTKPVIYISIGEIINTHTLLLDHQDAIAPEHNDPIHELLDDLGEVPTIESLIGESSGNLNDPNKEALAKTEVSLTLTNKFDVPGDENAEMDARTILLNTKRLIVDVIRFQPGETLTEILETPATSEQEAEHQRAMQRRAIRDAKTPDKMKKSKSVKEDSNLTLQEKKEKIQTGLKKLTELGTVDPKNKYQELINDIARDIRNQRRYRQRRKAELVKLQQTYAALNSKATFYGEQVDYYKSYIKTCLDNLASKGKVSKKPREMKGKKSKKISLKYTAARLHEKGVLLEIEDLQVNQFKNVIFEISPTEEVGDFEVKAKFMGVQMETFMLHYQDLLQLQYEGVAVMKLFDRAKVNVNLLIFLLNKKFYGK
Nature of the assay: co-IP of anti-Flag immunocomplexes, HEK293T cells treated with 25 µM pervanadate (FIG. 18E). How it is done:
(A) Silver-stained gel of anti-Flag immunoprecipitates from HEK293T cells transfected with empty vector or Flag-tagged GLK in the presence or absence of the tyrosine phosphatase inhibitor pervanadate (25 μM). Arrows indicate the positions of GLK or GLK-interacting proteins. (B) Four pervanadate-induced tyrosine phosphorylation residues of GLK proteins were listed. (C and D) Co-immunoprecipitation of anti-Flag (C) or anti-Myc (D) immunocomplexes from lysates of HEK293T cells transfected with Flag-tagged GLK, Myc-tagged IQGAP1, or both plasmids. The whole-cell lysate immunoblots before immunoprecipitation (Pre-IP) are shown at the bottom of each panel. β-Tubulin was used as the loading control. (E) Co-immunoprecipitation of anti-Flag immunocomplexes from lysates of HEK293T cells transfected with either Flag-tagged GLK or Flag-tagged GLK mutant (Y366F, Y379F, Y574F, or Y735F). HEK293T cells were treated with 25 μM pervanadate for 2 h (F) In situ PI A of HEK293T cells transfected with empty vector, 3× Flag-tagged GLK, Myc-tagged IQGAP1, or GLK together with IQGAP1 plasmids. Arrows indicate the PLA signals (red spots). Original magnification, ×40. Scale bar, 10 μm. (G) The relative PLA signal of each group per field is shown on the plot. (H) FRET assays of HEK293T cells transfected with the indicated plasmids encoding CFP- and YFP-fused GLK and IQGAP1 proteins. […]

B1: Flag-tagged RORγt-S489A mutant (receptor)
chain: DYKDDDDKMRTQIEVIPCKICGDKSSGIHYGVITCEGCKGFFRRSQQCNVAYSCTRQQNCPIDRTSRNRCQHCRLQKCLALGMSRDAVKFGRMSKKQRDSLHAEVQKQLQQQQQQEQVAKTPPAGSRGADTLTYTLGLSDGQLPLGASPDLPEASACPPGLLRASGSGPPYSNTLAKTEVQGASCHLEYSPERGKAEGRDSIYSTDGQLTLGRCGLRFEETRHPELGEPEQGPDSHCIPSFCSAPEVPYASLTDIEYLVQNVCKSFRETCQLRLEDLLRQRTNLFSREEVTSYQRKSMWEMWERCAHHLTEAIQYVVEFAKRLSGFMELCQNDQIILLKAGAMEVVLVRMCRAYNANNHTVFFEGKYGGVELFRALGCSELISSIFDFSHFLSALCFSEDEIALYTALVLINANRPGLQEKRRVEHLQYNLELAFHHHLCKTHRQGLLAKLPPKGKLRSLCSQHVEKLQIFQHLHPIVVQAAFPPLYKELFSTDVEAPEGLSK
For B1, the binding result in assay [1] is listed as “no binding”.

B2: Flag-tagged GLK (Y735F) mutant (enzyme)
chain: DYKDDDDKMNPGFDLSRRNPQEDFELIQRIGSGTYGDVYKARNVNTGELAAIKVIKLEPGEDFAVVQQEIIMMKDCKHPNIVAYFGSYLRRDKLWICMEFCGGGSLQDIYHVTGPLSELQIAYVSRETLQGLYYLHSKGKMHRDIKGANILLTDNGHVKLADFGVSAQITATIAKRKSFIGTPYWMAPEVAAVERKGGYNQLCDLWAVGITAIELAELQPPMFDLHPMRALFLMTKSNFQPPKLKDKMKWSNSFHHFVKMALTKNPKKRPTAEKLLQHPFVTQHLTRSLAIELLDKVNNPDHSTYHDFDDDDPEPLVAVPHRIHSTSRNVREEKTRSEITFGQVKFDPPLRKETEPHHELPDSDGFLDSSEEIYYTARSNLDLQLEYGQGHQGGYFLGANKSLLKSVEEELHQRGHVAHLEDDEGDDDESKHSTLKAKIPPPLPPKPKSIFIPQEMHSTEDENQGTIKRCPMSGSPAKPSQVPPRPPPPRLPPHKPVALGNGMSSFQLNGERDGSLCQQQNEHRGTNLSRKEKKDVPKPISNGLPPTPKVHMGACFSKVFNGCPLKIHCASSWINPDTRDQYLIFGAEEGIYTLNLNELHETSMEQLFPRRCTWLYVMNNCLLSISGKASQLYSHNLPGLFDYARQMQKLPVAIPAHKLPDRILPRKFSVSAKIPETKWCQKCCVVRNPYTGHKYLCGALQTSIVLLEWVEPMQKFMLIKHIDFPIPCPLRMFEMLVVPEQEFPLVCVGVSRGRDFNQVVRFETVNPNSTSSWFTESDTPQTNVTHVTQLERDTILVCLDCCIKIVNLQGRLKSSRKLSSELTFDFQIESIVCLQDSVLAFWKHGMQGRSFRSNEVTQEISDSTRIFRLLGSDRVVVLESRPTDNPTANSNLYILAGHENSY
As for B2, in assay [2], the binding result is recorded as “no binding”.
